Experimental data from patent publication US20230279119A1 (published 2023).

Target: T1, recombinant αvβ8 ectodomain (UniProt P06756 31-992; P26012 43-684, limits assumed)
T1 construct: extracellular domain; the ELISA and TMLC assays say only 'recombinant αvβ8'; also called immobilized αvβ8; integrin αvβ8
Experiment: scFv KD; method not stated (yeast-displayed scFv library was sorted with recombinant αvβ8 ectodomain)

T1 sequence (P06756 31-992 limits assumed, chain 1 of 2): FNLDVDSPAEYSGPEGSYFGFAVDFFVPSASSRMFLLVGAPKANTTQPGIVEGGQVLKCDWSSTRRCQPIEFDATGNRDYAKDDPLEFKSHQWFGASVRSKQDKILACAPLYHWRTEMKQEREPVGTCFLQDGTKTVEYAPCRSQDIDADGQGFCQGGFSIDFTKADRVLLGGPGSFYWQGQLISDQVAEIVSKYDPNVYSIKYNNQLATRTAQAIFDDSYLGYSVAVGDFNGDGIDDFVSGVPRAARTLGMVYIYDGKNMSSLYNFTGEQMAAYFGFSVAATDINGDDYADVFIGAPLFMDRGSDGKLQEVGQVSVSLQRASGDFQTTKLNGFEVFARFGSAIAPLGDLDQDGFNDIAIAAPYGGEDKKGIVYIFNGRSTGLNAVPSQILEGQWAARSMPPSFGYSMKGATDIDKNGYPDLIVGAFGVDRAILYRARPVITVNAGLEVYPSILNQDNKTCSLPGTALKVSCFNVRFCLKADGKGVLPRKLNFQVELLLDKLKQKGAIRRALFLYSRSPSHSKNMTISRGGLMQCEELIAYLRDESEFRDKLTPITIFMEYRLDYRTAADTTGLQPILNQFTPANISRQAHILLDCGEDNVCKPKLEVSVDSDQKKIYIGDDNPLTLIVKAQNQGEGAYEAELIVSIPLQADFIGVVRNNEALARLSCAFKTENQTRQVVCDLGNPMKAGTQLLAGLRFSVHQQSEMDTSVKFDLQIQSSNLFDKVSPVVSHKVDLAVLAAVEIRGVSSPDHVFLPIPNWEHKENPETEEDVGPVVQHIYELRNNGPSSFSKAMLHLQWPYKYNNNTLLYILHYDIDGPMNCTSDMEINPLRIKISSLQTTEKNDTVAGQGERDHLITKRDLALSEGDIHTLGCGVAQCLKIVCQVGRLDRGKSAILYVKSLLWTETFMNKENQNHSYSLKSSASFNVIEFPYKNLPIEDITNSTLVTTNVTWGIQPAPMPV
T1 sequence (P26012 43-684 limits assumed, chain 2 of 2): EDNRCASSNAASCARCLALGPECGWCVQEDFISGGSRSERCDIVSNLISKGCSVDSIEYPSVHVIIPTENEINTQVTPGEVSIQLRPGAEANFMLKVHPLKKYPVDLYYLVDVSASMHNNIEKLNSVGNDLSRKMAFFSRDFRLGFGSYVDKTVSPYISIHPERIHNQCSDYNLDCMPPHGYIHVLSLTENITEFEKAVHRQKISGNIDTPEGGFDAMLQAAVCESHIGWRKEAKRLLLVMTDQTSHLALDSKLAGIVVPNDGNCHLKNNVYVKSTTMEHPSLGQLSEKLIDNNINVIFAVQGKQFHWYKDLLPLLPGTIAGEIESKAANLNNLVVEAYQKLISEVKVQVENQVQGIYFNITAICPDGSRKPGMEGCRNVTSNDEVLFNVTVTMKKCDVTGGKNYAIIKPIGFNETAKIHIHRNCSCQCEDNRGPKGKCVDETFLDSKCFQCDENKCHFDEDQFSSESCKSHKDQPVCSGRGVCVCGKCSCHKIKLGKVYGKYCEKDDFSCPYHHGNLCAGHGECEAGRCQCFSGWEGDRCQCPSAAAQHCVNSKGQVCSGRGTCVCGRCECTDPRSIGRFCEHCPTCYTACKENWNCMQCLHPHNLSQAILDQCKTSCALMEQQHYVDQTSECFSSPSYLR

B1: C6D4 scFv (scFv, V domains shown)
VH: QIQLVQSGPELKKPGETVKISCKASGYTFTDYSMHWVKQAPGKGLKWVARINTETGEPTFADDFRGRFAVSLETSASTAYLQINNLKNEDTATYFCAIFYYGRDSWGQGTTLTVSS
VL: DIVMTQSPSSLAVSAGEKVTMSCKSSQSLLNSRTRKNYLAWYQQKPGQSPRLLIYWASTRESGVPDRFTGSGSGTDFTLTISSVQAEDLAVYYCKQSYNLLSFGAGTKLELK
notes: not shown: The scFv linker, the domain order, and the yeast-display partner and tags (vector pYD4)
Q: For B1, which Kd is on record?
A: 7.25 nM

B2: HuC6D4F12 scFv (scFv, V domains shown)
VH: QIQLVQSGAEVKKPGASVKISCKASGYTFTKYSMHWVRQAPGQGLEWVARINTETGEPTFADDFRGRFTVTLDTSTSTAYLEIRSLRSDDTAVYFCAIFYYGRDTWGQGTTLTVSS
VL: EIVMTQSPATLSVSPGERVTMSCKSSQSLLHSRSRKNYLAWYQQKPGQAPRLLIYWASTRESGVPARFSGSGSGTEFTLTISSVQSEDFAVYYCKQSYNLLSFGQGTVLEIK
notes: as for B1
Q: For B2, which Kd is on record?
A: 0.39 nM
